The source of these data is EP0311107A2, “Anti-HIV active 3'-fluoro-purine-2',3'-dideoxyribosides” (priority 1987, dated 1989).

In general, Km refers to the concentration of substrate that gives half-maximal velocity.

Substrate in data set [1]: Nc1nc(N)c2ncn([C@H]3C[C@H](F)[C@@H](CO)O3)c2n1
Briefly: Substrate kinetics for deamination by adenosine deaminase. The class given is biochemical. The note with it: other: beef intestine adenosine deaminase.

Substrate in data set [2]: Nc1nc(N)c2ncn([C@H]3C[C@@H](O)[C@@H](CO)O3)c2n1
The description is as above. It is filed as biochemical. The settings on record: other: beef intestine adenosine deaminase.

B1: beef intestine adenosine deaminase (ADA) (Bos taurus) (protein)
chain: MAQTPAFNKPKVELHVHLDGAIKPETILYYGRKRGIALPADTPEELQNIIGMDKPLSLPEFLAKFDYYMPAIAGCREAVKRIAYEFVEMKAKDGVVYVEVRYSPHLLANSKVEPIPWNQAEGDLTPDEVVSLVNQGLQEGERDFGVKVRSILCCMRHQPSWSSEVVELCKKYREQTVVAIDLAGDETIEGSSLFPGHVKAYAEAVKSGVHRTVHAGEVGSANVVKEAVDTLKTERLGHGYHTLEDATLYNRLRQENMHFEVCPWSSYLTGAWKPDTEHPVVRFKNDQVNYSLNTDDPLIFKSTLDTDYQMTKNEMGFTEEEFKRLNINAAKSSFLPEDEKKELLDLLYKAYGMPSPASAEQCL
notes: Kinetic properties of beef intestine adenosine deaminase for 2,6-diaminopurine 2′,3′-dideoxynucleoside analogues; purchased Boehringer Mannheim, Mannheim, West Germany; host or cells: beef intestine (tissue-derived enzyme)
For B1, the results for the Michaelis-Menten constant (Km) in data set [1] and in data set [2] were 148 µM and 74 µM, respectively. Further, the Vmax in data set [1] amounted to 31 µmole/mg protein/min.
